Data on one substance can be found in publication PMC4258114.

For the data set, the system named is SaiR-His6 (Bacillus anthracis str. Sterne 7702). The data set is described as follows: restriction enzyme.

“spxA2 SaiR site 1 wild-type (oMN14-666/oMN14-667)” registered a K half of 6 nM.
